Experimental data published in patent publication US20260242454A1.

Tests used:
[1] = biological target: recombinant human TGF-β3 (human) (UniProt P10600); test: ELISA, TGF-β3 coated on plate, anti-human IgG Fc-HRP detection
[2] = biological target: recombinant human TGF-β1 (human) (UniProt P01137); test: ELISA, TGF-β1 coated on plate, anti-human IgG Fc-HRP detection
Sequence of UniProt P01137 (P01137 279-390 limits assumed): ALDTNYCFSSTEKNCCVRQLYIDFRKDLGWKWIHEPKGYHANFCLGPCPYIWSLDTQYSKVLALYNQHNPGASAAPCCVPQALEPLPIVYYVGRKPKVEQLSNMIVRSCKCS

Sequence of UniProt P10600 (P10600 301-412 limits assumed): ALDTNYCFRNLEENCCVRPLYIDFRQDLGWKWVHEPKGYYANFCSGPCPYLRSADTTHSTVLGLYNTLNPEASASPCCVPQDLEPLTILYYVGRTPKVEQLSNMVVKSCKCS

## M7824
[1]
  EC50: 3.32 nM
[2]
  EC50: 2.08 nM
